Source: the DeepSol protein solubility set

assay: soluble on expression in E. coli; label from the status in PepcDB or PDB records

| Sequence | soluble on expression in E. coli |
| --- | --- |
| MGSDKIHHHHHHMKRRLGLKLYYRRRGHVKPSLLFVIQSHKGEFVKDRLEEYLNNLKIEKKPDSRESWDSYFMRIARMVSERSTCVHRKVGAVIVKDHRILATGYNQPPSKFPHCNEIGCIRDDLEINSGEHQEICYALHAEQNALMQAAKFGIAVNGATIYVTHKPCSICARLIVNAGIKRVVYEKDYPDPLTDFFFKFTGVESVRFVGDEM | not soluble |
| MDVTNDDYIRLLSALLPPGPVWSASDPAIAGAAPSLTRVHQRADALMRELDPRTTTELINRWERLCGLPDECIPAGTQTLRQRQQRLDAKVNLAGGINEDFYLAQLAALGRPDATITRYDKSTFTCSSACTDAVNAPEWRYYWQVNMPATTNSTWMTCGDPCDSALRIWGDTVVECVLNKLCPSHTYVIFKYPE | soluble |
| GIDTVGGKMTVCQLYDKKNSQRKNIKRATEKGRQYLMNALKNDPLGMRAIDTVKQSDAKEWAIRMSEKGYAYKTIDNYKRSLKASFYMAIQDDCIRKNPFDFKLSDVLEDDTEQKVILTPEQEERLLAFMEKDKIYSKYYDEVVLLLETGLRISEFCGLTMHIDMQNRILNIDHQLLKDSEIGYYIETPKTKNGKRELPLTERAYQAIQRILKSRGKAQPLIVGGYSNFLFLNREGLPKVAGNYEGMVRGLIKKYNKYHTDKLPNITPHSFRHTYCTNMANRGMNPNTLQYLMGHANITMTLGYYAHGTFQSAKAELERLAC | not soluble |
| MGSDKIHHHHHHMYRVIELGHVISAPFAGEILRHLGFEVIKIEPLLGDPSRKDDVLVDSMFVFNNRGKRSISVDLRKEKGKEVFLRLVRNSHVLIENLSPHVMDRLGLSDDVIFSTNPSLVYCSIKGYPKGKYENLPAFGTIIEAESGIMDANGKARLPASITDMNASTYCVITILWALLMKKPGHYRVSIIQANTVWLGYYLIAYQKYGKLFEAGKDELPFWAPYELFKSSEEKEFYLAVNDNEKFTKLCKALGLEDLLADERFKTNADRVRNRKILHEKLQQKFSSMKLEEIMNILRYNDIPVGKLNNLKDLISNELVEWDTFRNVQVPKLPLPGSLNSQHVPNVGEDTLYILKELGYSENEIESMIKENVINYNK | not soluble |
| MSLDSRKPGHRPVTMRDVAKAAGVSRMTVSRALKKDSPISSETRERILKVVKDMNYVPDQVAGSLTTKRSGFVGLLLPSLNNLHFAQTAQSLTDVLEQGGLQLLLGYTAYSPEREEQLVETMLRRRPEAMVLSYDGHTEQTIRLLQRASIPIVEIWEKPAHPIGHTVGFSNERAAYDMTNALLARGFRKIVFLGEKDDDWTRGAARRAGFKRAMREAGLNPDQEIRLGAPPLSIEDGVAAAELILQEYPDTDCIFCVSDMPAFGLLSRLKSIGVAVPEQVSVVGFGNFEVSRFASPEISTVRVDPIAIGRETGSLILRLLDPKQRSPQTAQHITLPPVLEFRPSLKNEGHHHHHH | soluble |
| IIPISNFFQMVDALAEVSSTRIRLQEEILAGSWESLNTGRADLLVCPSLDTLPQEVKAEKIGKMSMIWVAATEHYVHKRSGEFDDSAREKYRIIAIADTAREQPALSINIIQKQPRLTVTNFTAKVEALTAGLGIGTLPRQIALPLIEKGVLKQIEGTEEQPMDIILAWRRNTMGEAKSWCIQYLKKNWKLK | not soluble |
| SLEQPGFKLRAVTIHFEASADVDSIEDAVFKAKEAIDRLTAEKGVEVWSLRAVLTPGESVADSLGRVAELEPLVEEEGVFINLGLHNASADDWEAVSGIVESGFFLSFALENGTWEEARSYSKLLHRLADKSPDLAVHIGFNPLGTHILTPYFPLATSPGEQRTVTVALLYPRYLLESFRKGGLQAVIDSMVDAAQLSGEYGKAVAKDVEGSFAGVDLSISPWMEESSLALVEEVGGVRLPEPGFAYGLRLVNEAIAAAASKTGYAVGFNEVQLPVAEDSKLKVRVAELETSARDLLRLSGVCLAGLDMAVIPASLDGVAGLLLEARAYSRAKGSIVGVRLIPLDGVEPGDEVFLKRFGEVPVIPI | soluble |
| MGSSHHHHHHGGTGENLYFQGGSGLLSHHCIYPSRMFGDGRLLMDTSISGGMLLGLDVCGGVKLWPQHQYTAVELILPSALSGVREVLVPPVSMSGAGEESQRASEAGSGKQRASSPPLPRNLPGSRVIRIIHEASEIPAEVAGSYNSALNGSRRKGSKAMRSLDRGPAGTSGGRASSSIVPRYFDEFHRLRSQRVMEGSLKTVLEATNASIIGEARLRRQRRRYAVKHNKTIFIKGKTAAGDEQ | not soluble |
| MEPYIKALITDSYEQNKNFFRCRFMKNRRGDECNFVGTFSDTLTHFSIHTKVYLFECEGCTKQVVDFMDLVEHRSPSTGAICRGTVENMRQLRLERMKTIDAHRCRNVFIVGATRSEFEDYLRYKNTHGKQQSFGTPLYNDNEEEQTRHQPQQQRSSTPLAPTTPTPPPPTQAPTNHRELLLDFPLPVDFSRPPPVIPPEYFFNAPSVSQQHHQRSQYQHYAPQPQGNRTPGYVARPITPHGNPKPQNYQIGGGWNPYANPPSAKDAPATVRDNRSPSRPRGDFRRDRSQSRGAETHCQQSYQPPADPLQDRSRNGRSPPMGTHSHYGQNAKPAQNGNTSHYELRSRSRGRATVPMNANFRAGHQTGSSSRLESRSRATASVGARAPSRAPAPSSTSRETRSTRRSPSKGPSAPAYTLPFGGSTPNHEPMDLELEDPVPPPRPDRPRASTSLNTSVSQIKRNEVQTGVYNIRPQRVQDTVQKARTAVGYAGTRNRSPLREADAEEIAATEALKNRFAVKSRGTAKAKANSNRGAALLESIEPTNRKIETAEEREKKQNDLYLEKMRKIREKQRLEQEKIDDVVVDSGNLPTIAPNAAGTPPPQSVAAMLEPKEESEEDEPSTSASVPFQRRMNSPQTHATSYARRSDGKRHPSKSRSSRDDRANRRDRDRDSDGRCGDDRRRDHRSHPYERH | not soluble |
| MAHHHHHHMRRTIRVFTGKLLWEDFTNTRLITINREKALNSMDLEMVKAMQRAYVHEPHAKGDSALFVVKGAGNKSFCAGGDIVSLKDRYDVAAEFFYTEYQMNYHILTMPNPQVSLWDGYVMGGGVGVSVHGRYRVASERAVFAMPETAIGLFPDVGASWFLPRLKMKGLGLYLGLTGARLKGADVAHTGLATHYVPSARFCELEERLCHIDDPAKVEACLEEFAVRDLPPFTLEPHRETIEKSFALEEKTTVEGIYESLSADGGEFAKGTINTLNRMAPTSLRVSLEMQKRGVKMTDPADVFRMDYIGSLRTHANSDFHEGVRALLVDKTKDPKWKPAKLSDVTADYVEAYFKPMGNQARQWHPTVPY | soluble |
| MGSDKIHHHHHHMKTKMPEMLSFISEEAVSRKMTSEEIAAHFGYDKHHFSRKFKEINGFSVVEFLSSLKVEKAIIELNEEKRILDLQEHSGFESSGSFTNTFKKYTGSSPRKYKTEMNDIFYDMKRFENDNKDKSIAHFQEKNDSFCTVTIDVPDEFEKGIIFIGLFRTLIPNHMPISGLATKNLIGNQLKNIPSGDYYLLACAISQSNNILSYFNLSNSLRGKEDEKLSFPKCSGKHYAIKLREPIPEDPPILANVGKILISCLKNTI | not soluble |
| MGSSHHHHHHSSGLVPRGSHMRGVIRKLNDDGFGVLKGILVPFSAPGDEIIVERVERVKKRRVASQWKLVRSSPLRVGPRCKAFGKCGGCTLQHLNYDYQLEFKRKKLKRILGFEVEVVPSPKIFGHRNRIDLAITKDGIGFRERGKWWKIVDIDECPVFGKTSREAIERLKEFIEEEKISVWNIKKDEGFLRYMVLREGKFTEEVMVNFVTKEGNLPDPTNYFDFDSIYWSVNRSKSDVSYGDIERFWGKEFIRERLDDVDYLIHPNSFFQTNSYQAVNLVRKVSELVEGEKILDMYSGVGTFGIYLAKRGFNVKGFDSNEFAIEMARRNVEINNVDAEFEVASDREVSVKGFDTVIVDPPRAGLHPRLVKRLNREKPGVIVYVSCNPETFARDVKMLDYRIDEIVALDMFPHTPHVELVAKLV | soluble |
| MGLLKDLSSARDKIERIYGLNKEKLLLLAKVKEGFETSVFDFPFKNIQPDSPYFVCLDPPCKKESAYNKVIGDKNRTVYHEINKTEFENMIKLRTKRLKLLIGEVDAEVSTGDKIEFPVLANGKRRGFIYNVGGLVTDIAWLNIEENTDIGKDIQYLAVAVSQYMDEPLNEHLEMFDKEKHSSCIQIFKMNTSTLHCVKVQTIVHSFGEVWDLKWHEGCHAPHLVGCLSFVSQEGTINFLEIIDNATDVHVFKMCEKPSLTLSLADSLITTFDFLSPTTVVCGFKNGFVAEFDLTDPEVPSFYDQVHDSYILSVSTAYSDFEDTVVSTVAVDGYFYIFNPKDIATTKTTVSRFRGSNLVPVVYCPQIYSYIYSDGASSLRAVPSRAAFAVHPLVSRETTITAIGVSRLHPMVLAGSADGSLIITNAARRLLHGIKNSSATQKSLRLWKWDYSIKDDKYRIDSSYEVYPLTVNDVSKAKIDAHGINITCTKWNETSAGGKCYAFSNSAGLLTLEYLSLEHHHHHH | soluble |
| MIEKKKNRSKLKREAILAAAKKAYQDDGVQNTSMDKLASLAQVSKRTVYNHFSSKEALVMELLSDLWQNSMADIDIQFSENVSIQDQLERLLLAELNVIGAQSYLDLAKVAFGHFFYKPDELQLQVEKMAEQETALSRWLQLMMDTKKLTIEDKHKAGVQLHSLLKGSAFWPQLVGMRAVLSSEEKEQLVTETADMFLSRYLKR | not soluble |
| MVSYQILLLLVSILPLTYSIRTSKWHFSGKLLCPLYTFKYHLEVFEEDYFRKTDDLLTNQTEVSSISPHLYKVDAEETDDGLDFGRHFEIYMLIIHDCNPDRYVKSLKVDWGKYHIDIEFVTFYALKFEIFSEVSEVKDIDVFGKGSAL | not soluble |
| MGSDKIHHHHHHWLDLAPSTQVDTETSINVLSDIEFTLNGIYSTMQSSDAYSGRLVYYGDVTGDDMQAVSSTKRTGNYYRFNFTKDNGPSSHWSYLYSIIQNCNLILMNVDKLSIDEDETEYKNDLKGQALAIRGMALFDLTRIFGYPYLKDNGASLGVPIVKELSTIDSKPARNTVAECYTEIISDLKNSTELLSGDFNKGKVNRWAAMTLLSRVYLYKGEYNEALTMAENAIKGAEKEGYALWTNEEYPTAWGNDASASNPGEILFEIVNLTTDSPGKESMGYLNSYNGYDDMCITCSFYQLLKKDPKDVRLKILSFDKKYYAYVNKYQPQQGENITDANIPLIRLSEAYLNAAEAAVQTGDNAKAVKYLNSIVQRANPENSVEGKTLTLENVLDERRKELVAEGHRMYDVIRNGMTVKRIDVKDSDINKTKHNTAYMEYDWNFHKILLPIPKKEMDANPNMKQNPGYVD | not soluble |
| MSLSDDRLSLQTFLTRVTAVRLKLQQVVTAPDPEAMIQVLAQTVFQGKGADLTDIQAYGNLIAASLGADWGPAANTLFVRPLDQAWQQILLPSSAGLNRAWQRAIVDEWQGAFSGRYPFAATSSDASLPMLGQMIRADSGRIEQFLAQQLMGLLRKEGSRWVADSRQSQGLRFNPDFLTAINQLSQLADVLYTDGGMGVSFELQGKPVRDVVQTTFVLNGEKHHYFNQRESWQRFRWPGQGDHPGISEGHHHHHH | soluble |
| MGSDKIHHHHHHMKKYMRTCSPRLAKEKYCTGCMACSDACTHDAIKIVEKNCMPFVKVDTHKCMNCHLCEKACPIITPVKKNRAEEMNVYGGWANDEQTRIDAASGGGFSGLAQSFFHLHKEDKVAVIGATLANNRVYHQLIEQEKDIVLLTNSKYIQSDTQGIYKEVIERLKTGYWILFSGCPCQIAGLYGFLGKKRDSERLITIEVVCHGIASYEALDLHLKYYNSSRIYRFRDKRHGTQDWKQSQCTTIEQNGEEIKLKRKDDMFYAIYAGWMLDRKSCSNCQFAEINRVADITIADFWGLQVPDYYKQGVSLIIANNNKADTMIKAADAIYTFKESLRTAINGNPHLFTGYKLIQFHPIVMWPDFFRKILPKRIRFKILTNRMPYKLFWALYKLGTIYLVKYQKKQLISKFQKDDNLLKLLNNANRGGGKMA | not soluble |
